According to paper PMC8750365:

Columns and labels:
[1] = target: Endogenous TOP1 of U2OS cells (human (endogenous in U2OS)) (UniProt P11387); assay: proximity ligation
[2] = target: Endogenous TOP2A of U2OS cells (human (endogenous in U2OS)) (UniProt P11388); assay: proximity ligation
Chain of UniProt P11388 (P11388 whole entry): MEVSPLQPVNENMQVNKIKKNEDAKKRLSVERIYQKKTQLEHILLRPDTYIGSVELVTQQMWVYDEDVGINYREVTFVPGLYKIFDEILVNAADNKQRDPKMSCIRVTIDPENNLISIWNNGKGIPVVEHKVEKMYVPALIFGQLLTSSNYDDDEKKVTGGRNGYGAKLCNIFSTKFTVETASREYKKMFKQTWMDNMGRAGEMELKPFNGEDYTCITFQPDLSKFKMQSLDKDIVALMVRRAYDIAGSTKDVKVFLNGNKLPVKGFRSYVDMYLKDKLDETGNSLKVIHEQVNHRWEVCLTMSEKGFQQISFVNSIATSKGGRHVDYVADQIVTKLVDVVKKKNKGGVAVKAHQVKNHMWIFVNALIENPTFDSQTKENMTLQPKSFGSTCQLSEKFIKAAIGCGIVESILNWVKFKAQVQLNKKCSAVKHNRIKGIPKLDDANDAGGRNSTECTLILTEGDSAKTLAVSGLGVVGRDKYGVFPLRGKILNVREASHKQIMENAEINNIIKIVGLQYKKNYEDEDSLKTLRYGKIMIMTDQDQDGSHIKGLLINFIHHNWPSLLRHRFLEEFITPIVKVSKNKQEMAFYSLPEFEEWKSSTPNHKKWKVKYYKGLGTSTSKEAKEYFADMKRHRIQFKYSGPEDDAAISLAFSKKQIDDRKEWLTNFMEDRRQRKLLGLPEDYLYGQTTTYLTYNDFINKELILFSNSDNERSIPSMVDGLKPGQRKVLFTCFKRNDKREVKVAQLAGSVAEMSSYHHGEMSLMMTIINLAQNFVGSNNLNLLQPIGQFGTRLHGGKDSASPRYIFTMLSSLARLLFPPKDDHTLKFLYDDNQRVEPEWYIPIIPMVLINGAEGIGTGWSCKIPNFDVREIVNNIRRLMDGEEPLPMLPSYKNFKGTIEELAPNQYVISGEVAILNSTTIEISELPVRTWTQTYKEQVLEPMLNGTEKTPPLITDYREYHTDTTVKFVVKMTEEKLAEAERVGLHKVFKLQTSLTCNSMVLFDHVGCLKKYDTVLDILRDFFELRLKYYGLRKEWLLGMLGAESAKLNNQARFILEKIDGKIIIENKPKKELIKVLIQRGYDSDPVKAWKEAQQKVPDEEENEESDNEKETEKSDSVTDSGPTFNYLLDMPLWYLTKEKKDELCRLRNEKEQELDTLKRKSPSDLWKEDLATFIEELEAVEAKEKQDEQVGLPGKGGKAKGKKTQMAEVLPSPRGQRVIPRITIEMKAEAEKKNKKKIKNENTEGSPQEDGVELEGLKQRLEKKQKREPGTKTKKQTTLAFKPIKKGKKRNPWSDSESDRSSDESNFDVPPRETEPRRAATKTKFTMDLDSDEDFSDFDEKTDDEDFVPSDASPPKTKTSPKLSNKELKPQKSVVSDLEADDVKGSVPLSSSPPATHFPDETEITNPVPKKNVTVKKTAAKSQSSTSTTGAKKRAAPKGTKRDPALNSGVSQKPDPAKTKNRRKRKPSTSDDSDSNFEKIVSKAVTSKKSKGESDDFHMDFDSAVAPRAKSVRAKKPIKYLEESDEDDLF

Chain of UniProt P11387 (P11387 whole entry): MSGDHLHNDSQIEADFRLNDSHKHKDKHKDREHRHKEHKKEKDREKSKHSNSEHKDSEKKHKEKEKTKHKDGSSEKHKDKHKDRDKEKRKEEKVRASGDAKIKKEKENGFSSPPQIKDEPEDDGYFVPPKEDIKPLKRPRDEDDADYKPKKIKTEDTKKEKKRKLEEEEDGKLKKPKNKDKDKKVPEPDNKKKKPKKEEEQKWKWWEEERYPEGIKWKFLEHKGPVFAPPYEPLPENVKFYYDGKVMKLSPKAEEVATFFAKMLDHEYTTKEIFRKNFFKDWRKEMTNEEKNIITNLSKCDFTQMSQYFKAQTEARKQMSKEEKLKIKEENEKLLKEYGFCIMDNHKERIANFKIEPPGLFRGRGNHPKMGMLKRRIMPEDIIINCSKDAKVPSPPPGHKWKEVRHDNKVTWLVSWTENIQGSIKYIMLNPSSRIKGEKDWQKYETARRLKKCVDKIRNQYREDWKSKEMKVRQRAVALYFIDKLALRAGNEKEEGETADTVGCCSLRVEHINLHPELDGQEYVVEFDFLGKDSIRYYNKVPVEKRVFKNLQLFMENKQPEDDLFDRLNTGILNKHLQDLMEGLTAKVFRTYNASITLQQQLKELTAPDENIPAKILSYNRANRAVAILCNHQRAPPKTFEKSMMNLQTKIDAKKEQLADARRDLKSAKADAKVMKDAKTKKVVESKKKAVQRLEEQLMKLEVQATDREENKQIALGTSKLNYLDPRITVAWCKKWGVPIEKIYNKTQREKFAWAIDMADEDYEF

| PLA dots/cell (with Dox) [1] | PLA dots/cell (with Dox) [2] | PLA dots/cell (untreated cells) [1] | PLA dots/cell (untreated cells) [2] | Substance |
| --- | --- | --- | --- | --- |
| > 80 dots/cell | > 80 dots/cell |  |  | MYC-EGFP, doxycycline-inducible, in U2OS-MYC-EGFP cells (from UniProt P01106 1-454) (natural protein) |
|  |  | 60 dots/cell | 60 dots/cell | Endogenous MYC of U2OS cells (from UniProt P01106 1-454) (natural protein) |
